Patent US20260266833A1
Numbering of substitutions follows the chain as printed. In names and notes the source's numbering stands. Blank lines part the entries; values can stand above or below the binder they belong to.

Columns and labels:
H3K9me3 peptide [1] = assay: fluorescence polarization, FITC-peptide 0.5 nM
H3K9me3 peptide [2] = assay: ITC, peptide titrated into the chromodomain, 25 C
H3K9me3 peptide [3] = assay: BLI, biotinylated peptide on streptavidin tips, steady state

Kd (H3K9me3 peptide [1]): 20 µM
B1: Cbx8.VD chromodomain (tags removed) (designed binder)
chain: GEDVFAAEALLKRRIRKGRMEYLVKWEGWSQKYSTWEPEENILDARLLAAFEEREREMELYGP

Kd (H3K9me3 peptide [1]): 5 µM
B2: Cbx2.VD chromodomain (tags removed) (designed binder)
chain: GEDVFAAECILSKRLRKGKLEYLVKWEGWSSKHNSWEPEENILDPRLLLAFQKKEHEKEVQNR

Kd (H3K9me3 peptide [1]): 7 µM
Kd (H3K9me3 peptide [2]): 7 µM
B3: Cbx7.V1 chromodomain (tags removed) (designed binder)
chain: SAIGDDIFAVESIRKKRVRKGKVEYLVKWEGWPLEYSTWEPEEHILDPRLVMAYEEKEERDRASGYRKRGPK

Kd (H3K9me3 peptide [3]): 3.5 µM
B4: Cbx7.V1 back-mutant I10V, His6- and Flag-tagged (designed binder, not shown: small tags and cut ends)
chain: B3 chain with I7V

Kd (H3K9me3 peptide [3]): 10 µM
B5: Cbx7.V1 back-mutant E33K, His6- and Flag-tagged (designed binder, not shown: small tags and cut ends)
chain: B3 chain with E30K

Kd (H3K9me3 peptide [3]): 4.5 µM
B6: Cbx7.V1 chromodomain, His6- and Flag-tagged (designed binder, not shown: small tags and cut ends)
chain: B3 chain

Kd (H3K9me3 peptide [1]): 8 µM
B7: Cbx7.VD chromodomain (tags removed) (designed binder)
chain: B3 chain with D5E, I7V, L34P, E35K

Kd (H3K9me3 peptide [3]): 5 µM
B8: Cbx7.V1 back-mutant D8E, His6- and Flag-tagged (designed binder, not shown: small tags and cut ends)
chain: B3 chain with D5E

Kd (H3K9me3 peptide [3]): 3 µM
B9: Cbx7.V1 back-mutant L37P, His6- and Flag-tagged (designed binder, not shown: small tags and cut ends)
chain: B3 chain with L34P

Kd (H3K9me3 peptide [1]): 10 µM
B10: Cbx7 Q9D chromodomain (tags removed) (designed binder)
chain: B3 chain with D5E, I7V, E30K, L34P, E35K

Kd (H3K9me3 peptide [3]): 2 µM
B11: Cbx7.V1 back-mutant E38K, His6- and Flag-tagged (designed binder, not shown: small tags and cut ends)
chain: B3 chain with E35K

Kd (H3K9me3 peptide [1]): 20 µM
B12: Cbx7 K33E chromodomain (tags removed) (designed binder)
chain: B3 chain with D5E, D6Q, I7V, L34P, E35K

Kd (H3K9me3 peptide [1]): 30 µM
B13: Cbx7.wt chromodomain (tags removed), O95931 4-75 (protein)
chain: B3 chain with D5E, D6Q, I7V, E30K, L34P, E35K
